Publication PMC3427744

Assays:
[1] = biological target: commercial rituximab; test: SPR
[2] = biological target: non-fucosylated G2 glycoform of rituximab (10); test: SPR

Kd [1] [nM] | Kd [2] [nM] | Substance
1040 | 123 | FcγRIIIa-F158 (from UniProt P08637 17-254) (receptor)
2000 | – | FcγRIIb (from UniProt P31994 43-310) (receptor)
